Here are results for one substance from patent publication US20060057614A1 (priority 2004, published 2006).

For this test, the target named is sodium Nav1.2 voltage-gated channel (expressed in Xenopus oocytes). Put plainly: cell-based or functional assay.

As for tethered µ-o-conotoxin MrVIA, the current flux through the channel, whole cell currents in Xenopus oocytes came out at 90%.
